Assay results taken from US20210340276A1 (published 2021).
Positions count from the first letter of the chain named.

B1: P10-1 Fab (Fab, V domains shown)
VH: QVQLVQSGAEVKKPGASVKVSCKASGYTFTNYGLSWVRQAPGQGLEWMGENHPGSGIIYHNEKFRGRVTLTADRSTSTAYMELSSLRSEDTAVYYCARSSGTRGFAYWGQGTLVTVSS
VL: DVVMTQTPLSLSVTPGQPASISCRSSQSIVHSNGNTYLEWYLQKPGQSPQLLIYRVSNRFSGVPDRFSGSGSGTDFTLKISRVEAEDVGVYYCFQGSHGPWTFGQGTKLEIKR
B2: P10-2 Fab (Fab, V domains shown)
VH: B1 VH with A106D
VL: B1 VL
modifications: heavy chain N-terminal glutamine modified into pyroglutamic acid in a great majority of purified antibodies (Example 2)

Biological target: human cancer-specific MUC1 (on breast cancer cell line T-47D cells) (human, UniProt P15941 24-1255, cancer-specific incomplete O-glycosylation (T, Tn, 2,3ST) of the tandem repeat, as described in the background)
Test: Cell ELISA

Row | Binder | Kd [nM]
1 | B1 | 0.35
2 | B2 | 0.29
